In PMC2185595 (The Journal of Cell Biology, 2000):

T1: Vps11 (two-hybrid fusion) (S. cerevisiae, UniProt P12868 1-1029)
T1 sequence: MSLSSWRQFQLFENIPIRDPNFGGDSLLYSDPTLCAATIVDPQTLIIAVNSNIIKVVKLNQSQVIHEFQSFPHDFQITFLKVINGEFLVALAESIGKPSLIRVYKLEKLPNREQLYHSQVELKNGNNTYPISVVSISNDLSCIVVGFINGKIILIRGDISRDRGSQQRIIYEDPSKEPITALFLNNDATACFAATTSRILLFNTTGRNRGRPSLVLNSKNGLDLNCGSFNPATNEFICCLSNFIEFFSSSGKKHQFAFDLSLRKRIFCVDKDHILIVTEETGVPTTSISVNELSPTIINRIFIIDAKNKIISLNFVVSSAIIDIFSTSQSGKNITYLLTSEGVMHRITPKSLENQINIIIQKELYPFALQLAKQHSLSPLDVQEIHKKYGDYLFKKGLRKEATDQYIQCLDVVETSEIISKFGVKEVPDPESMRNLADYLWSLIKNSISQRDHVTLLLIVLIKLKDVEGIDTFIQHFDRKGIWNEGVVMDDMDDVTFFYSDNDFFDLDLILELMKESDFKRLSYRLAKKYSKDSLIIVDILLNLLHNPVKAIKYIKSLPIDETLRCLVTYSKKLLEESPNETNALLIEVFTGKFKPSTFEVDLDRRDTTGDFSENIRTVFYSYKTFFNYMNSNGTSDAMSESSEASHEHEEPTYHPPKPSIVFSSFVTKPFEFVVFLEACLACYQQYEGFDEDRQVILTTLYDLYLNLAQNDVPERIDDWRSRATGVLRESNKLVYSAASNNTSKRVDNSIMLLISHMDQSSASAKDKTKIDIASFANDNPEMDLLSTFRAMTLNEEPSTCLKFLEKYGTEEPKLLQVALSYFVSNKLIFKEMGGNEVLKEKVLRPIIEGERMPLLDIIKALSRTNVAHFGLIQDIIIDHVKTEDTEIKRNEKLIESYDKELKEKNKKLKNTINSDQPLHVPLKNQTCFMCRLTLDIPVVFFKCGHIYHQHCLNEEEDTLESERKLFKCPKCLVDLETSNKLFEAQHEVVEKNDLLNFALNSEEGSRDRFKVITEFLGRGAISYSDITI

T2: Ras1 (two-hybrid fusion) (UniProt P01119 1-309)
T2 sequence: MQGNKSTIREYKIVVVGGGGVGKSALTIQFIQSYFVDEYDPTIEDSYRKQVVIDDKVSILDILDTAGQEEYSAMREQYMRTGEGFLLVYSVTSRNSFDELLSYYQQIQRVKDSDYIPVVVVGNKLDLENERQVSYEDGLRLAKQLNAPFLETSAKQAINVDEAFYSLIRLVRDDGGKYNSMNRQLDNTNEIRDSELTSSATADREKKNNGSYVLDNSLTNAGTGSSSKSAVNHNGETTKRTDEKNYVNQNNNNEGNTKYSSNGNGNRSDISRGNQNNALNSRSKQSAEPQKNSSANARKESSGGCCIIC

T3: Vps21 (two-hybrid fusion) (S. cerevisiae, UniProt P36017 1-210)
T3 sequence: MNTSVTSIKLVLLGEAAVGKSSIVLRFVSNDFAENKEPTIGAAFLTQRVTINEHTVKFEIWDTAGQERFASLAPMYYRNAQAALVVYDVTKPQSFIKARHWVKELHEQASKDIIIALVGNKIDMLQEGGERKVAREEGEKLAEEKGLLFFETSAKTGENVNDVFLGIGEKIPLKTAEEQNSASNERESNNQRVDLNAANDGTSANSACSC

T4: protein A–Vps39 (S. cerevisiae, UniProt Q07468 1-1049)
T4 sequence: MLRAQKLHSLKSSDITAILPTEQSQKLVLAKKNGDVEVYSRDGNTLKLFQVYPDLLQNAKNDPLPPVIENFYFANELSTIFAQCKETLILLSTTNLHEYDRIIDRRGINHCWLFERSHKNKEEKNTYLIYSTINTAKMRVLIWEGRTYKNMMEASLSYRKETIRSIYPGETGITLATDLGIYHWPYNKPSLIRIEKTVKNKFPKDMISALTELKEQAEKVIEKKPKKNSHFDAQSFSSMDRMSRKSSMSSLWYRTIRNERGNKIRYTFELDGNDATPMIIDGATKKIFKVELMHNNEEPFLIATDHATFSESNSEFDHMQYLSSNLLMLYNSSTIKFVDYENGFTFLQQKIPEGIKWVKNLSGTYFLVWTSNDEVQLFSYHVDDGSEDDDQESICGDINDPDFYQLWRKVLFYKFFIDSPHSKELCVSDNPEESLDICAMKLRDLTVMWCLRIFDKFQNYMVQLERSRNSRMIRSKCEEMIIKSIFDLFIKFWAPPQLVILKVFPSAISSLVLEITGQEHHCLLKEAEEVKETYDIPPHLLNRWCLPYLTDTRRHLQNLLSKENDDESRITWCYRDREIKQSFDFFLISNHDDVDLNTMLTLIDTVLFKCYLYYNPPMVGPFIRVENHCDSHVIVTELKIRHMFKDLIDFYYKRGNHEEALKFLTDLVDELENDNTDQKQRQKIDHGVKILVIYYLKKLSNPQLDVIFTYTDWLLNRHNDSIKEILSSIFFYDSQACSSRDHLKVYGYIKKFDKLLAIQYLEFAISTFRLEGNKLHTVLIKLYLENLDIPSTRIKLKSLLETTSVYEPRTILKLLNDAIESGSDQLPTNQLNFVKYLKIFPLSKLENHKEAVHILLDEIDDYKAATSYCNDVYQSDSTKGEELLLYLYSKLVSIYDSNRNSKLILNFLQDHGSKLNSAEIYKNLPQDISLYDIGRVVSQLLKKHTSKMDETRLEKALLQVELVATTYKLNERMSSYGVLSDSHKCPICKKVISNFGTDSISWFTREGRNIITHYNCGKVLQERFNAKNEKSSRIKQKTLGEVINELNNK


Key:
[1] = target: T1, Vps11 (two-hybrid fusion); test: two-hybrid
[2] = target: Ypt7 T40A (two-hybrid fusion) (S. cerevisiae, UniProt P32939 1-208, T40A | C206S | C208S); test: two-hybrid
[3] = target: Ypt7 D129A (two-hybrid fusion) (S. cerevisiae, UniProt P32939 1-208, D129A | C206S | C208S); test: two-hybrid
[4] = target: Ypt7 (two-hybrid fusion, ypt7 C206S, C208S) (S. cerevisiae, UniProt P32939 1-208, C206S | C208S); test: two-hybrid
[5] = target: Ypt7 Q68L (two-hybrid fusion) (S. cerevisiae, UniProt P32939 1-208, Q68L | C206S | C208S); test: two-hybrid
Ras1 (two-hybrid fusion) = target: T2, Ras1 (two-hybrid fusion); test: two-hybrid
[6] = target: Ypt7 I41S (two-hybrid fusion) (S. cerevisiae, UniProt P32939 1-208, I41S | C206S | C208S); test: two-hybrid
[7] = target: T3, Vps21 (two-hybrid fusion); test: two-hybrid
[8] = target: Ypt7 T22N (two-hybrid fusion) (S. cerevisiae, UniProt P32939 1-208, T22N | C206S | C208S); test: two-hybrid
protein A–Vps39 = target: T4, protein A–Vps39; test: pull-down

Binder | β-galactosidase activity [1] [U] | β-galactosidase activity [2] [U] | β-galactosidase activity [3] [U] | β-galactosidase activity [4] [U] | β-galactosidase activity [5] [U] | β-galactosidase activity (Ras1 (two-hybrid fusion)) [U] | β-galactosidase activity [6] [U] | β-galactosidase activity [7] [U] | β-galactosidase activity [8] [U] | binding result (protein A–Vps39)
Vps39 (two-hybrid fusion) (natural protein) MLRAQKLHSLKSSDITAILPTEQSQKLVLAKKNGDVEVYSRDGNTLKLFQVYPDLLQNAKNDPLPPVIENFYFANELSTIFAQCKETLILLSTTNLHEYDRIIDRRGINHCWLFERSHKNKEEKNTYLIYSTINTAKMRVLIWEGRTYKNMMEASLSYRKETIRSIYPGETGITLATDLGIYHWPYNKPSLIRIEKTVKNKFPKDMISALTELKEQAEKVIEKKPKKNSHFDAQSFSSMDRMSRKSSMSSLWYRTIRNERGNKIRYTFELDGNDATPMIIDGATKKIFKVELMHNNEEPFLIATDHATFSESNSEFDHMQYLSSNLLMLYNSSTIKFVDYENGFTFLQQKIPEGIKWVKNLSGTYFLVWTSNDEVQLFSYHVDDGSEDDDQESICGDINDPDFYQLWRKVLFYKFFIDSPHSKELCVSDNPEESLDICAMKLRDLTVMWCLRIFDKFQNYMVQLERSRNSRMIRSKCEEMIIKSIFDLFIKFWAPPQLVILKVFPSAISSLVLEITGQEHHCLLKEAEEVKETYDIPPHLLNRWCLPYLTDTRRHLQNLLSKENDDESRITWCYRDREIKQSFDFFLISNHDDVDLNTMLTLIDTVLFKCYLYYNPPMVGPFIRVENHCDSHVIVTELKIRHMFKDLIDFYYKRGNHEEALKFLTDLVDELENDNTDQKQRQKIDHGVKILVIYYLKKLSNPQLDVIFTYTDWLLNRHNDSIKEILSSIFFYDSQACSSRDHLKVYGYIKKFDKLLAIQYLEFAISTFRLEGNKLHTVLIKLYLENLDIPSTRIKLKSLLETTSVYEPRTILKLLNDAIESGSDQLPTNQLNFVKYLKIFPLSKLENHKEAVHILLDEIDDYKAATSYCNDVYQSDSTKGEELLLYLYSKLVSIYDSNRNSKLILNFLQDHGSKLNSAEIYKNLPQDISLYDIGRVVSQLLKKHTSKMDETRLEKALLQVELVATTYKLNERMSSYGVLSDSHKCPICKKVISNFGTDSISWFTREGRNIITHYNCGKVLQERFNAKNEKSSRIKQKTLGEVINELNNK | 2.8 | ~13 | 31 | ~4 | ~3 | < 0.25 | ~13 | < 0.25 | ~5 | 
GST-Ypt7 (natural protein) MSSRKKNILKVIILGDSGVGKTSLMHRYVNDKYSQQYKATIGADFLTKEVTVDGDKVATMQVWDTAGQERFQSLGVAFYRGADCCVLVYDVTNASSFENIKSWRDEFLVHANVNSPETFPFVILGNKIDAEESKKIVSEKSAQELAKSLGDIPLFLTSAKNAINVDTAFEEIARSALQQNQADTEAFEDDYNDAINIRLDGENNSCSC |  |  |  |  |  |  |  |  |  | binds
